Common to all, as to test: G' assay
Assay [1] concerns the target T1, GST-AF6 PDZ domain 1 (Homo sapiens (Human)), P55196.
T1 chain: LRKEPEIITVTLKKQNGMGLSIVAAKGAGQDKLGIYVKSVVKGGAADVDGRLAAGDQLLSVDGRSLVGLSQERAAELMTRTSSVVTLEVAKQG

The target in assay [2] is GST-KIAA807 [GST: P08515].
In assay [3] the target is T2, GST-MINT1 PDZ domain 2 (Mus musculus (Mouse)), B2RUJ5.
T2 chain: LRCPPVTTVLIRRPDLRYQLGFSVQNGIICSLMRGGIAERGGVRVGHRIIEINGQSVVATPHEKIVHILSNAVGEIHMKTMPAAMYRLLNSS

Assay [4] has as its target GST-KIAA0316 PDZ domain 1 (Homo sapiens (Human)), Q14CM0.
In assay [5] the target is T3, GST-KIAA0807(S) PDZ domain 1 (Homo sapiens (Human)), Q6P0Q8.
T3 chain: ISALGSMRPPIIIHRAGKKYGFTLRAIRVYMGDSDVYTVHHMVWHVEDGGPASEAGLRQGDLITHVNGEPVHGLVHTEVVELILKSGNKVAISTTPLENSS

For assay [6], the target named is T4, GST-MINT1 PDZ domains 1, 2, Q02410.
T4 chain: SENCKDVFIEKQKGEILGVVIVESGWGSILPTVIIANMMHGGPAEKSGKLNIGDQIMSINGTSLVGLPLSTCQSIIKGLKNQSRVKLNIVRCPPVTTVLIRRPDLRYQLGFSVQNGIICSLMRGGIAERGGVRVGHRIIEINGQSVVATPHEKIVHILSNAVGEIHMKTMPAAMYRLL

Assay [7] concerns the target T5, GST-KIAA0561 PDZ domain 1 (Homo sapiens (Human)), O60307.
T5 chain: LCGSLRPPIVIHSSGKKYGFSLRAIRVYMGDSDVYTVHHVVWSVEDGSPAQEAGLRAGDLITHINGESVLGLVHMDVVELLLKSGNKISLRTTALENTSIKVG

In assay [8] the target is T6, GST-MUPP1 PDZ domain 3 (Homo sapiens (Human)), O75970.
T6 chain: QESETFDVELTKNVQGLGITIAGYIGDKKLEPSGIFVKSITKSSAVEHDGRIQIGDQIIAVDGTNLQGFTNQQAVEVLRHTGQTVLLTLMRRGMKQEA

Assay [9] concerns the target T7, GST-DVL2 PDZ domain 1 (Homo sapiens (Human)), O14641.
T7 chain: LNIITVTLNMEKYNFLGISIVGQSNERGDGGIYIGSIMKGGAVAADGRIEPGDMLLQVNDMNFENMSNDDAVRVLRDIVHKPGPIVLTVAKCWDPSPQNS

Assay [10] addresses T8, GST-KIAA0973 PDZ domain 1 (Homo sapiens (Human)), Q9Y2H9.
T8 chain: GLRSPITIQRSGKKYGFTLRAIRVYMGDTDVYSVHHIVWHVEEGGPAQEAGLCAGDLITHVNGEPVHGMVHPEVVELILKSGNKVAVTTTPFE

The target in assay [11] is T9, GST-MUPP1 PDZ domain 11 (Homo sapiens (Human)), O75970.
T9 chain: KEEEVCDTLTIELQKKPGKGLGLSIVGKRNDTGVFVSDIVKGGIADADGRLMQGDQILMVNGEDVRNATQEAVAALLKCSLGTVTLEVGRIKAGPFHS

Assay [12] concerns the target GST-PAR3 PDZ domain 3 (Homo sapiens (Human)), Q8TEW0.
In assay [13] the target is T10, GST-LIM Protein PDZ domain 1 (Homo sapiens (Human)), Q96HC4.
T10 chain: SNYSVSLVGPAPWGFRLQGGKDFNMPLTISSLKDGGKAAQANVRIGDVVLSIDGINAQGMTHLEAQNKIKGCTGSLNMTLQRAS

For assay [14], the target named is GST-BAI-1 Associated Protein PDZ domain 6 (Homo sapiens (Human)), Q96QZ7.
Sequence of GST-BAI-1 Associated Protein PDZ domain 6 (Homo sapiens (Human)), Q96QZ7 (Q96QZ7 1143-1233): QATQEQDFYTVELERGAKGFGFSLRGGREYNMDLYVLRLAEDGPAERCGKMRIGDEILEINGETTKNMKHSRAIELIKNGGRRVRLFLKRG
The target in assay [15] is GST-KIAA1634 PDZ domain 1 (Homo sapiens (Human)), Q5TCQ9.
Sequence of GST-KIAA1634 PDZ domain 1 (Homo sapiens (Human)), Q5TCQ9 (Q5TCQ9 401-502): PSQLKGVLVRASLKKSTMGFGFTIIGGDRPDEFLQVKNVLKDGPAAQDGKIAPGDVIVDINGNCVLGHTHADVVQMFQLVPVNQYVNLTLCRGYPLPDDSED
Assay [16] has as its target T11, GST-novel PDZ gene PDZ domain 2 (Homo sapiens (Human)), Q9H5P4.
T11 chain: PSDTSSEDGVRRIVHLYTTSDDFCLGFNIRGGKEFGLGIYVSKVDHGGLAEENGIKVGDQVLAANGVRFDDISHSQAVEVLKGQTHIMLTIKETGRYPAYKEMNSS

Assay [17] deals with GST-KIAA1634 PDZ domain 5 (Homo sapiens (Human)), Q5TCQ9.
Sequence of GST-KIAA1634 PDZ domain 5 (Homo sapiens (Human)), Q5TCQ9 (Q5TCQ9 other isoform, or with tags, fused parts or gaps): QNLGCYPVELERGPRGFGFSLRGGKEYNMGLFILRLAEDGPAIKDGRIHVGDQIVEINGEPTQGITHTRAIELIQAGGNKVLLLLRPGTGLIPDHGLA
Assay [18] has as its target T12, GST-TIP1 PDZ domain 1 (Table 9 insert) (Homo sapiens (Human)), O14907.
T12 chain: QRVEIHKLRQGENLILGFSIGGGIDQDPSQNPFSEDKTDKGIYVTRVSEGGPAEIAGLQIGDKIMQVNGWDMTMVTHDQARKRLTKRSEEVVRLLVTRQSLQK

Assay [19] has as its target T13, GST-Syntrophin 1 alpha PDZ domain 1 (Homo sapiens (Human)), Q13424.
T13 chain: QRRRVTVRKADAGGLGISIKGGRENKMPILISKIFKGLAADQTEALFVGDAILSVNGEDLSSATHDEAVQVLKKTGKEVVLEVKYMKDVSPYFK

The target of assay [20] is T14, GST-KIAA0380 PDZ domain 1 (Homo sapiens (Human)), O15085.
T14 chain: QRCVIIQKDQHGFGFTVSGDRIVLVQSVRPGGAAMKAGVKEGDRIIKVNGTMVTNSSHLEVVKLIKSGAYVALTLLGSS

In assay [21] the target is T15, GST-PDZK1 PDZ domains 2, 3, 4, Q5T2W1.
T15 chain: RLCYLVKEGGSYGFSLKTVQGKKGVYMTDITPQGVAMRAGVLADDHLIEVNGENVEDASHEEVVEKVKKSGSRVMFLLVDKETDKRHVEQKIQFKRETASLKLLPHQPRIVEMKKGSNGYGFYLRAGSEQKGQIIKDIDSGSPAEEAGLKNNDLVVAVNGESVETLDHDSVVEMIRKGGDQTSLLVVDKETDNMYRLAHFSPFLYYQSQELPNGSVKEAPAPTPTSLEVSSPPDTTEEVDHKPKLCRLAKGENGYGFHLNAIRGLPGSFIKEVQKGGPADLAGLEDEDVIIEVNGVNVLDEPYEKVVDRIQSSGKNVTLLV

Assay [22] deals with T16, GST-MUPP1 PDZ domain 13 (Homo sapiens (Human)), O75970.
T16 chain: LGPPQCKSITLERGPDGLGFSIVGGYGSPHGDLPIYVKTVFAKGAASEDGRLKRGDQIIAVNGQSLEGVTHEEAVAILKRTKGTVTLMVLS

Assay [23] has as its target GST-PSD95 PDZ domains 1, 2, 3 (Homo sapiens), P78352.
For assay [24], the target named is GST-BAI-1 Associated Protein PDZ domain 2 (Mus musculus (Mouse)), Q6RHR9.
Sequence of GST-BAI-1 Associated Protein PDZ domain 2 (Mus musculus (Mouse)), Q6RHR9 (Q6RHR9 455-558): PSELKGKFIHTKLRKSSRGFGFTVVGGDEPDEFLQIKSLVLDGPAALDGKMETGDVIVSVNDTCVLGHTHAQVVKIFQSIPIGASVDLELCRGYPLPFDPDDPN
Assay [25] has as its target T17, GST-KIAA1526 PDZ domain 1 (Homo sapiens (Human)), Q9P202.
T17 chain: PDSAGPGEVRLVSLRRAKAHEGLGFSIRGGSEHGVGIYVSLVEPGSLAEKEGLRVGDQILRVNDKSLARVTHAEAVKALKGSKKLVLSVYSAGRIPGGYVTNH

Assay [26] has as its target T18, GST-Shank 1 PDZ domain 1 (Homo sapiens (Human)), Q9UPX8.
T18 chain: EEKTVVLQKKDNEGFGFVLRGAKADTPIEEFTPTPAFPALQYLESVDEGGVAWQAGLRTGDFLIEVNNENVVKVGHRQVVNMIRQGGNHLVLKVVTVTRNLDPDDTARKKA

Assay [27] deals with T19, GST-KIAA1719 PDZ domain 6 (Homo sapiens (Human)), Q9C0E4.
T19 chain: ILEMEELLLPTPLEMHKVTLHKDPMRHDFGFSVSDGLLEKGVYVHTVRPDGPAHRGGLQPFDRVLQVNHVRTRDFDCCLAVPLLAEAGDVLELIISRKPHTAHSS

Assay [28] concerns the target T20, GST-KIAA0382 PDZ domain 1 (Canis lupus familiaris (Dog) (Canis familiaris)), A0A8I3.
T20 chain: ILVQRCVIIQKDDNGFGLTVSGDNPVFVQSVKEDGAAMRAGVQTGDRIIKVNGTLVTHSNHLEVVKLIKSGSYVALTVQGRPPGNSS

The target of assay [29] is T21, GST-GRIP 1 PDZ domain 7 (Homo sapiens (Human)), Q9Y3R0.
T21 chain: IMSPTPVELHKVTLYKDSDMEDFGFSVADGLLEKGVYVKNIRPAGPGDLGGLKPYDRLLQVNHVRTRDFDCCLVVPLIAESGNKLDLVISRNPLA
Further: key of the grades not given here.

Sequence of GST-KIAA807 [GST: P08515] (P08515 whole entry, the tested form may be a part): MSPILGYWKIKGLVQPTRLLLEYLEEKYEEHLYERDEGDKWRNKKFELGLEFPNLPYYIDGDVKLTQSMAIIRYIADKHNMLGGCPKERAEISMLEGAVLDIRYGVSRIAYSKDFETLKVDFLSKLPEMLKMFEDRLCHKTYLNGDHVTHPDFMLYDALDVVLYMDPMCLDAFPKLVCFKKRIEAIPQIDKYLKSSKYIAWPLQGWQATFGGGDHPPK
Sequence of GST-KIAA0316 PDZ domain 1 (Homo sapiens (Human)), Q14CM0 (Q14CM0 72-159): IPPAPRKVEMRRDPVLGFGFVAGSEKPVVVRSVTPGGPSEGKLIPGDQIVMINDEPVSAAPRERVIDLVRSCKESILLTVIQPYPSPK
Sequence of GST-PSD95 PDZ domains 1, 2, 3 (Homo sapiens), P78352 (P78352 62-395): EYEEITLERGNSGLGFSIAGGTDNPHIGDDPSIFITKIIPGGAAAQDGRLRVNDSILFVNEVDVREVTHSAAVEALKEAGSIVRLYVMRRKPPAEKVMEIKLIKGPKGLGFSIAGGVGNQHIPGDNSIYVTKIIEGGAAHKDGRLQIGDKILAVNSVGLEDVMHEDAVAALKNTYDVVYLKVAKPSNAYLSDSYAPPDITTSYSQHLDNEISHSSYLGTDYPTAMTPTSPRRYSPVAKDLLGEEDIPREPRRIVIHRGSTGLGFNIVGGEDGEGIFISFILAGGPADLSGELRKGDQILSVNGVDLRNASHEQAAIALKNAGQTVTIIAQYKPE
Sequence of GST-PAR3 PDZ domain 3 (Homo sapiens (Human)), Q8TEW0 (Q8TEW0 579-681): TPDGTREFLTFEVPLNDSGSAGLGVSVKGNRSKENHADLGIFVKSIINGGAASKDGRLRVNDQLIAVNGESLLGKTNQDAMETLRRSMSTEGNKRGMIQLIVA

On to KTMPAATYRLLTGQEQPVYL (modifications not checked) [MINT-3], for which the Classification was 1 A450 class in assay [1]; 1 A450 class in assay [2]; 2 A450 class in assay [3]; 2 A450 class in [4]; 1 A450 class in assay [5]; 2 A450 class in assay [6]. For the same molecule, the Classification turned out to be 1 A450 class in assay [7]; 1 A450 class in assay [8]; 1 A450 class in [9]; 2 A450 class in assay [10]; 2 A450 class in assay [11]; 1 A450 class in assay [12]. The same molecule yielded a Classification in [13] of 1 A450 class.

In the case of ARHRVTSYTSSSVNVSSNL (modifications not checked) [IL-8RA], the Classification in [14], in [15], in assay [16], in [17], in assay [18] and in assay [19] was 1 A450 class each time. The Classification in assay [20], in assay [21], in [22], in assay [23], in assay [5] and in assay [24] was 1 A450 class each time.

For the molecule LNETTETQRTLLNGDLQTSI (modifications not checked) [SSTR2 (somatostatin recepor 2)], the Classification in assay [25] came to 1 A450 class; in assay [2], 2 A450 class; in assay [3], 1 A450 class; in [5], 2 A450 class; in [26] it was 1 A450 class; in assay [6], 1 A450 class. Further, the Classification in assay [27], in assay [28] and in assay [29] was 1 A450 class in each case.

The values above are taken from patent US20050282743A1, “Molecular interactions in cells” (Arbor Vita Corporation, priority 2001, published 2005).
